Substrate: Nc1ncnc2c1ncn2[C@@H]1O[C@H](COP(=O)(O)O)[C@@H](O)[C@H]1O
Assay: spectrophotometric deamination assay, initial rates, Lineweaver-Burk
Assay type: biochemical, Helix pomatia
Settings: 20 mM Tris-HCl pH 7.5, 50 mM NaCl, 25 °C (general assay buffer)
Text: spectrophotometric deamination assay, initial rates, Lineweaver-Burk on […]

B1: HPAMPD (recombinant H. pomatia AMP deaminase) (Helix pomatia) (protein)
chain: LAVRFPTMDEYTNAREELIGSEQYLRVGGSINLNNKEKKLNQFILREKRAIIENSRLNKTQYIPAVSFFLSKSQMESTPIFKIIKDMPKGAALHLHDTASARIDWIVSNATYRDHVYMCMDQDNFVRLTVSGTGPPANSGCEWKLVETERANSGDIAAFDHWLKSNISLLTTDPLVTYPSLDKVWGRFDKHFSQLRGIIYHTPIRRDYYRQILEEFRSDNVQYVEVRSSLSGYYDLDGTVHDPEYGLQLYKAVTEEFVRTYPDFSGAKIIKSTARVKPNTDIFNDVKLSMDLYKRYPGFFLGFDLVAQEDPNTSLLGYIDSLLYPSRQNPPVSLPYYFHAGETNWQGTEVDYNLVDALLLNATRIGHGFALIKHPRVIELVKSRGVAVEVNPVSNQLLGLVKDLRNHAAAPLLAQNVPVVISSDDPGVWEALPMSHDMYVAFMDLVGEDAGLDVLKQLVWNSIQYSSMNATEKKTALKLLQAKWNNFINDSLIKWKLTNKKVI
notes: secreted from Pichia pastoris with alpha-factor signal; C-terminal His10; Endo Hf treated; 58676 Da; ORF 536 residues; homodimer predicted
Km: 25 µM
kcat: 170 per second

— PMC10358891, “The AMP deaminase of the mollusk Helix pomatia is an unexpected member of the adenosine deaminase-related growth factor (ADGF) family” (PLOS ONE, 2023)
